B1: Co-chaperonin GroES, P0A6F9 (parent)
chain: MNIRPLHDRVIVKRKEVETKSAGGIVLTGSAAAKSTRGEVLAVGNGRILENGEVKPLDVKVGDIVIFNDGYGVKSEKIDNEEVLIMSESDILAIVEA

Variants of: B1
Details: Escherichia coli (strain K12); pH 7.8; 25 °C; GdnHCl; Chromatography; Tris-HCl 5 mM; KCl 200 mM; reversible: yes; structure 1AON; whole UniProt chain shown

Variant: MNIRPLHDRVIVKRKEVETKSAGGIVLTGSAAAKSTRGEVLAVGNGRILENGEVKPLDVKVGDIVIFNDGYGVKSEKIDNEEVLIMSESDILAICEA
- ddG of mutation (higher = less stable): 0.3 kcal/mol
- denaturant m value: 2.2 kcal/mol/M
- unfolding free energy: 2 kcal/mol

Variant: MNCRPLHDRVIVKRKEVETKSAGGIVLTGSAAAKSTRGEVLAVGNGRILENGEVKPLDVKVGDIVIFNDGYGVKSEKIDNEEVLIMSESDILAIVEA
- ddG of mutation (higher = less stable): 0.4 kcal/mol
- denaturant m value: 2.4 kcal/mol/M
- unfolding free energy: 1.9 kcal/mol

Variant: MNWRPLHDRVIVKRKEVETKSAGGIVLTGSAAAKSTRGEVLAVGNGRILENGEVKPLDVKVGDIVIFNDGYGVKSEKIDNEEVLIMSESDILAIVEA
- ddG of mutation (higher = less stable): 0.4 kcal/mol
- denaturant m value: 2 kcal/mol/M
- unfolding free energy: 1.9 kcal/mol
